Experimental data published in patent US20100298542A1.

Columns and labels:
[1] = target: soluble human FcRn (complex of FcRn extracellular domain and β2-microglobulin) (human) (UniProt P55899); assay: SPR (Biacore 3000), method of Example 6: captured antibody, human FcRn as analyte, pH 6.0, steady state affinity
[2] = target: soluble human FcRn (complex of FcRn extracellular domain and β2-microglobulin) (human) (UniProt P55899); assay: SPR (Biacore 3000), antibody captured on Protein L or anti-human kappa antibody, human FcRn as analyte, pH 6.0, steady state affinity
[3] = target: soluble human FcRn (complex of FcRn extracellular domain and β2-microglobulin) (human) (UniProt P55899); assay: as above; remark: listed apart in the source
[4] = target: recombinant soluble human IL-6 receptor (SR344) (human) (UniProt P08887); assay: SPR (Biacore T100), antibody captured on anti-IgG (γ-chain specific) F(ab')2, SR344 as analyte, pH 7.4, 37° C.
Chain of recombinant soluble human IL-6 receptor (SR344) (human) (P08887 20-344): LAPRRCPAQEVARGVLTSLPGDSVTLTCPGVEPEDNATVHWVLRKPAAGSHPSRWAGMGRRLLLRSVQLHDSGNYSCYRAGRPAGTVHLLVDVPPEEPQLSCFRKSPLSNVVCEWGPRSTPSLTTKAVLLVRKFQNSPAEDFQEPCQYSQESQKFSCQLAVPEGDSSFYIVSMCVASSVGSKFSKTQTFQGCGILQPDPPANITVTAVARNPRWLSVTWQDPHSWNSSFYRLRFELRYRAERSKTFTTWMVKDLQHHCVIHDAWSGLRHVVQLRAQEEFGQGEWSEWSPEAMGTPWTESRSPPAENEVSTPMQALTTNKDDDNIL

Chain of soluble human FcRn (complex of FcRn extracellular domain and β2-microglobulin) (human) (P55899 24-290 limits assumed, chain 1 of 2): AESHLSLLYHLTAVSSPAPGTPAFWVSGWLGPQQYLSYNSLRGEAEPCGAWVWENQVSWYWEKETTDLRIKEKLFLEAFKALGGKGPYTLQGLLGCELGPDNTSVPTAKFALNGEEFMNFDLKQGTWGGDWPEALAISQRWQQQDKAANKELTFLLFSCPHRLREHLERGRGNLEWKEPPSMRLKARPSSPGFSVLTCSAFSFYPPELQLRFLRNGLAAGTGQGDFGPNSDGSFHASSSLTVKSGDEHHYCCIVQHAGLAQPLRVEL
Chain of soluble human FcRn (complex of FcRn extracellular domain and β2-microglobulin) (human) (b2m, as listed by the source limits assumed, chain 2 of 2): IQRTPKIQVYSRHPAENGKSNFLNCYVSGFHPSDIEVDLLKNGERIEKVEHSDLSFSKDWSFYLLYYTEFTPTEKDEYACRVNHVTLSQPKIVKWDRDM

WT-IgG1 (humanized PM-1 antibody, TOCILIZUMAB; humanized anti-human IL-6 receptor IgG1 antibody)
Kd [1]: 1.42 µM
Kd [2]: 2.07 µM
Kd [3]: 1.62 µM
Kd [4]: 0.0027 µM
koff [4]: 0.0011 s⁻¹
kon [4]: 400000 M⁻¹ s⁻¹
